Results published in patent US20130171217A1, “ENZYMATIC PERACID GENERATION FOR USE IN SKIN CARE PRODUCTS” (E I DU PONT DE NEMOURS AND COMPANY, priority 2010, published 2013).

What was measured:
[1] = Single fiber tensile strength and bleaching start after two-step enzymatic application; conditions: two-step with buffer rinse
Protocol: Hair samples were cut into pieces 4-inches in length. The denier number (liner mass density) of each hair fiber was measured by Textechno Vibromat Instrument (Textechno Herbert Stein GmbH & Co. KG; Germany). The hair fibers were tested according to ASTM D 3822-01 (“Tensile Properties of Single Textile Fibers”; ASTM International, West Conshohocken, Pa., 2001), on an Instron testing system (Instron Model 1122 Tester; Instron, Mass.) at about 70° F. (approximately 21° C.) and 65% relative humidity. The treated area of the hair sample was placed in the middle of the gauge and both ends were gripped on the test heads. Both fiber ends were attached on a piece of tape, respectively, for easy handling and gripping on the test heads. The test used 2-inch (5.1 cm) gauge length, […], and 1.2 inch/min (3 cm/min) pulling rate. The force-strain curve of the fiber was recorded during the test. The tenacity at maximum (gf/den) was calculated by dividing maximum force (gf) by denier number (den). Note that (gf/den)/11.33=Newtons/tex (N/tex).
In a two-step application, the hair strands are first treated with perhydrolase solutions to allow the enzyme to bind hair. The hair strands are then dried or rinsed with buffer and dried. The rinse step is intended to remove excess unbound enzyme from the hair. The hair strands are soaked in triacetin and H2O2 solutions. The application is repeated for multiple times.
One experiment was carried out with C277S-HC263 and untargeted T. maritima variant C277S using the following protocol: • 1. Enzyme solutions comprising 0.5 mg/mL enzyme in 50 mM phosphate buffer (pH 8) were made with or without 10 wt % urea. • 2. Seven (7) hair strands were soaked in 0.2 mL of an enzyme solution for 10 min and then dried under N2 without prior rinsing. • 3. The hair strands were then soaked in 0.2 mL of a pH 8 solution containing 100-mM triacetin and 250-mM H2O2 for 15 min, dried, then rinsed with DI water and then dried again. • 4. Steps 2-3 were repeated up to 15 times.
Another experiment was carried out with C277S-HC263 (SEQ ID NO: 288), CPAH-HC263 (SEQ ID NO: 294), CPAH-HC1010 (SEQ ID NO: 295) and untargeted C277S using the following protocol: • 1. Enzyme solutions comprising 1.0 mg/mL enzyme in 50 mM phosphate buffer (pH 6) were prepared. For solutions containing two enzymes, the concentration of each enzyme was approximately 0.5 mg/mL. • 2. Seven (7) hair strands were soaked in 0.2 mL of an enzyme solution for 10 min, rinsed with 50 mM phosphate buffer (pH 6), and then dried under N2. • 3. The dried hair strands were then soaked into 0.2 mL of 50 mM phosphate buffer solution (pH 8) comprising 100 mM triacetin and 250 mM H2O2 for 15 min, dried, then rinsed with DI water and then dried again. • 4.

[2] = Perhydrolase activity remaining bound to hair, ABTS assay; assay type: binding, human; conditions: 50 μg/mL
Protocol: Ten mg of human hair was submerged in 2 mL of a binding solution containing 50 μg/mL of the Thermotoga maritima perhydrolase targeted to hair via the hair binding peptide HC263 (C277S-HC263; SEQ ID NO: 288; also referred to herein as “HC1121”) in 50 mM pH 7.2 potassium phosphate buffer containing 5% of the test surfactant. The test surfactants were two nonionic surfactants: TWEEN®-20 (Sigma, St Louis, Mo.), and TRITON®-X 100 (Aldrich, St Louis, Mo.), and two ionic surfactants: CHEMBETAINE™ CAD (Cocamidopropyl betaine; Lubrizol, Wickliffe, Ohio) and RHODAPEX® ES-2K (sodium laurel ether sulfate; Rhodia Novecare, Cranbury, N.J.).
Hair was incubated in the binding solution at room temperature (˜22° C.) with gentle agitation for 30 minutes, at which time the solution was removed by aspiration and the hair rinsed with 1% TWEEN®-20 in 50 mM pH 7.2 potassium phosphate buffer. The hair was removed from the tube, blotted dry with paper towel, and transferred to a new set of tubes. The hair was rinsed once with 1% TWEEN®-20 in 50 mM pH 7.2 potassium phosphate buffer and then rinsed three times with 50 mM pH 7.2 potassium phosphate buffer. Perhydrolase activity remaining bound to the hair was determined by the ABTS assay.
The ABTS assay was performed as follows: hair samples treated as described above were transferred to new 2-mL microcentrifuge tubes (Eppendorf Protein LoBind; Eppendorf North America, Hauppauge, N.Y.) To each tube was added 480 μL of PAH buffer (50 mM potassium phosphate, pH 7.2), 14 μL of 39% hydrogen peroxide (Sigma 3410), and 6 μL triacetin (Sigma-Aldrich W200700). The perhydrolase reaction was allowed to proceed for 10 minutes at room temperature (˜22-25° C.). The reaction was stopped by diluting aliquots 10×, 100× and 1000× with 10 mM phosphoric acid. For detection 50 μL of 1 M acetic acid, 50 μL of 40 mg/mL potassium iodide, and 50 μL of 4 mM ABTS (2,2′-azino-bis(3-ethylbenzthiazoline-6-sulphonic acid; Sigma, St Louis, Mo.) were added to 50 μL of the above dilutions. Color was allowed to develop for 10 minutes and read in a spectrophotometer at 405 nm. Values from no-enzyme controls were subtracted to yield values attributable only to enzyme activity. A standard curve of OD 405 nm vs PAA concentration in ppm yielded a conversion factor of 8.75, such that an OD 405 nm of 1.0 corresponded to approximately 8.75 ppm PAA. This value was then multiplied by the appropriate dilution to arrive at the PAA concentration in the perhydrolase reaction.
The Thermotoga maritima perhydrolase targeted to hair via the hair binding peptide HC263 (C277S-HC263; SEQ ID NO: 288) was diluted to 50 μg/mL in a solution of 5% PEG-80 sorbitan laurate in 100 mM citrate-phosphate buffer adjusted to pH 4.9, pH 5.5, pH 6.0, or pH 7.0. Ten mg of human hair was added to 2 mL of the above formulations and incubated with gentle agitation for 5 minutes at room temperature to allow enzyme binding to hair. A no-enzyme control sample was included with each pH. After binding, the binding solution was removed by aspiration and the hair was washed with 2 mL of 1% TWEEN®-20 in 50 mM pH 7.2 potassium phosphate buffer. The hair was removed from the tube, blotted dry with paper towel, and transferred to a new set of tubes. The hair was rinsed once with 1% TWEEN®-20 in 50 mM pH 7.2 potassium phosphate buffer and then rinsed three time with 50 mM pH 7.2 potassium phosphate buffer. Perhydrolase activity remaining bound to the hair was determined by the ABTS assay. The results are given as ppm PAA produced at 10 minutes (after subtraction of the no-enzyme control values)
The Thermotoga maritima perhydrolase targeted to hair via the hair binding peptide HC263 (C277S-HC263; SEQ ID NO: 288) was diluted to 50 μg/mL in a solution of 5% PEG-80 sorbitan laurate in 100 mM citrate-phosphate buffer adjusted to pH 6.0. […]

[3] = Retention of perhydrolase on hair detected by hydrolase activity; assay type: binding
Protocol: For hair binding experiments brown hair tresses (International Hair Importers and Products, Glensdale N.Y.) were used. The hair was washed with 2% SLES, rinsed extensively with deionized water and air dried.
Around 20 mg of 1 cm brown hair fragments was added in a 1.8-mL microfuge tube. Hydrolase assay buffer (1.2 mL) as added to the hair followed by the addition of the perhydrolase enzymes to the solution. The enzymes were allowed to bind the hair for 30 min with gentle agitation (24 rpm) on an Adams Nutator (model 1105, Becton Dickinson, Franklin Lakes, N.J.). No enzyme controls, with hair and without hair, were included in the binding experiment to account for non-enzymatic hydrolysis of the pNPA hydrolase reagent. After the binding step, a 1.0-mL aliquot of the binding buffer was transferred to a new tube to quantitate the amount of unbound enzyme. Additional binding buffer was removed and the hair fragments were washed 4 times with 1 mL of 1% TWEEN®-20 in hydrolase buffer, followed by 2 washes with 1 mL each in hydrolase buffer. The hair fragments were then resuspended in 1 mL of hydrolase assay and the hydrolase activity that remained bound to the hair was measured. The C277S (“PAH”) variant of Thermotoga maritima perhydrolase (SEQ ID NO: 293) was used as a control for an un-targeted perhydrolase.

[4] = pH 6.0, binding 1 min, at 10 minutes

B1: CPAH-HC263: fusion peptide C277S-HC263 further comprising a D128G substitution (protein)
chain: MAFFDLPLEELKKYRPERYEEKDFDEFWEETLAESEKFPLDPVFERMESHLKTVEAYDVTFSGYRGQRIKGWLLVPKLEEEKLPCVVQYIGYNGGRGFPHDWLFWPSMGYICFVMDTRGQGSGWLKGGTPDYPEGPVDPQYPGFMTRGILDPRTYYYRRVFTDAVRAVEAAASFPQVDQERIVIAGGSQGGGIALAVSALSKKAKALLCDVPFLCHFRRAVQLVDTHPYAEITNFLKTHRDKEEIVFRTLSYFDGVNFAARAKIPALFSVGLMDNISPPSTVFAAYNYYAGPKEIRIYPYNNHEGGGSFQAVEQVKFLKKLFEKGGPGSGGAGSPGSAGGPGSPSAQSQLPDKHSGLHERAPQRYGPEPEPEPEPIPEPPKEAPVVIEKPKPKPKPKPKPPAHDHKNQKETHQRHAAGSGGGGSPHHHHHH
[1]; 1.0 mg/mL enzyme pH 6
  Bleaching Start: 9th
[1]; 1.0 mg/mL enzyme pH 6, 100 mM triacetin, 250 mM H2O2, up to 13 repeats
  Tenacity @ max: 0.6 gf/den

B2: SEQ ID NO: 341: C277S variant of Thermotoga maritima perhydrolase fused to hair binding domain HC263KtoR via a flexible linker (protein)
chain: MAFFDLPLEELKKYRPERYEEKDFDEFWEETLAESEKFPLDPVFERMESHLKTVEAYDVTFSGYRGQRIKGWLLVPKLEEEKLPCVVQYIGYNGGRGFPHDWLFWPSMGYICFVMDTRGQGSGWLKGDTPDYPEGPVDPQYPGFMTRGILDPRTYYYRRVFTDAVRAVEAAASFPQVDQERIVIAGGSQGGGIALAVSALSKKAKALLCDVPFLCHFRRAVQLVDTHPYAEITNFLKTHRDKEEIVFRTLSYFDGVNFAARAKIPALFSVGLMDNISPPSTVFAAYNYYAGPKEIRIYPYNNHEGGGSFQAVEQVKFLKKLFEKGGPGSGGAGSPGSAGGPGSPSAQSQLPDRHSGLHERAPQRYGPEPEPEPEPIPEPPREAPVVIERPRPRPRPRPRPPAHDHRNQRETHQRHAAGSGGGGSPHHHHHH
[2]; 5% PEG-80 sorbitan laurate pH 6.0, binding 10 min, PAA at 10 minutes
  ppm PAA: 958 ppm

B3: SEQ ID NO: 314: untargeted S54V variant of the aryl esterase from Mycobacterium smegmatis (protein, listed as Mycobacterium smegmatis)
chain: MAKRILCFGDSLTWGWVPVEDGAPTERFAPDVRWTGVLAQQLGADFEVIEEGLVARTTNIDDPTDPRLNGASYLPSCLATHLPLDLVIIMLGTNDTKAYFRRTPLDIALGMSVLVTQVLTSAGGVGTTYPAPKVLVVSPPPLAPMPHPWFQLIFEGGEQKTTELARVYSALASFMKVPFFDAGSVISTDGVDGIHFTEANNRDLGVALAEQVRSLL
[2]; [4]
  OD 405nm: 0.003
  Peracetic acid: 2.60 ppm

B4: C277S-HC1010: C277S variant of Thermotoga maritima perhydrolase fused via a flexible linker to hair-binding domain HC1010 (protein)
chain: MAFFDLPLEELKKYRPERYEEKDFDEFWEETLAESEKFPLDPVFERMESHLKTVEAYDVTFSGYRGQRIKGWLLVPKLEEEKLPCVVQYIGYNGGRGFPHDWLFWPSMGYICFVMDTRGQGSGWLKGDTPDYPEGPVDPQYPGFMTRGILDPRTYYYRRVFTDAVRAVEAAASFPQVDQERIVIAGGSQGGGIALAVSALSKKAKALLCDVPFLCHFRRAVQLVDTHPYAEITNFLKTHRDKEEIVFRTLSYFDGVNFAARAKIPALFSVGLMDNISPPSTVFAAYNYYAGPKEIRIYPYNNHEGGGSFQAVEQVKFLKKLFEKGGPGSGGAGSPGSAGGPGSAQSQLPDKHSGLHERAPQRYGSGTAEIQSSKNPNPHPQRSWTNGSGHNHMQERYTDPQHSPSVNGLGSGHDHKNQKETHQRHAASSHHHHHH
[3]; hydrolase activity, 1% TWEEN®-20
  Activity in the first TWEEN®-20 wash: 20%
[3]; hydrolase activity, 4 washes 1% TWEEN®-20 and 2 buffer washes
  Activity retained on hair after 4 TWEEN® 20 washes: 41%
[3]; hydrolase activity, ~20 mg hair, binding 30 min
  Activity unbound: 20%
[3]; tube containing ~20 mg of hair, not subjected to washes
  100% activity (hydrolase activity added to the tube): 125 µmol/min
